{"source": "patent US20120027687A1", "about": "“FATTY ACID PROTEIN KINASE C ACTIVATORS AND ANTICOAGULANT FOR THE TREATMENT OF STROKE” (priority 2010, published 2012)", "tested_on": "ischemic stroke (MCAO)", "test": "Transient focal ischemia (MCAO) model of stroke", "assay_type": "in vivo, rat", "conditions": "rats; rTPA 6 hours after stroke, with or without bryostatin-1 2 hours later", "method": "A transient animal model of focal ischemia was used for these experiments. The middle cerebral artery (MCA) was surgically dissected and occluded in anesthetized rats by ligature, followed by reperfusion after a defined period (about 2 hours). Animal models transient ischemia via occlusion of the MCA (MCAO) are described in, e.g., Sicard and Fisher, Exp. & Transl. Stroke Med. (2009), vol. 1, pp. 1-7."}
{"molecule": "rTPA: recombinant tissue plasminogen activator, thrombolytic serine protease (protein, UniProt P00750 36-562, looked up) Tissue-type plasminogen …: SYQVICRDEKTQMIYQQHQSWLRPVLRSNRVEYCWCNSGRAQCHSVPVKSCSEPRCFNGGTCQQALYFSDFVCQCPEGFAGKCCEIDTRATCYEDQGISYRGTWSTAESGAECTNWNSSALAQKPYSGRRPDAIRLGLGNHNYCRNPDRDSKPWCYVFKAGKYSSEFCSTPACSEGNSDCYFGNGSAYRGTHSLTESGASCLPWNSMILIGKVYTAQNPSAQALGLGKHNYCRNPDGDAKPWCHVLKNRRLTWEYCDVPSCSTCGLRQYSQPQFRIKGGLFADIASHPWQAAIFAKHRRSPGERFLCGGILISSCWILSAAHCFQERFPPHHLTVILGRTYRVVPGEEEQKFEVEKYIVHKEFDDDTYDNDIALLQLKSDSSRCAQESSVVRTVCLPPADLQLPDWTECELSGYGKHEALSPFYSERLKEAHVRLYPSSRCTSQHLLNRTVTDNMLCAGDTRSGGPQANLHDACQGDSGGPLVCLNDGRMTLVGIISWGLGCGQKDVPGVYTKVTNYLDWIRDNMRP", "values": [{"measurement": "mortality 24 hours later", "value": 44, "unit": "%"}]}
